{"source": "paper PMC8204306", "about": "(ACS Infectious Diseases, 2021)", "molecules": {"B1": {"name": "ChsH3 (Mycobacterium tuberculosis H37Rv) (protein)", "chain": "MPIDLDVALGAQLPPVEFSWTSTDVQLYQLGLGAGSDPMNPRELSYLADDTPQVLPTFGNVAATFHLTTPPTVQFPGIDIELSKVLHASERVEVPAPLPPSGSARAVTRFTDIWDKGKAAVICSETTATTPDGLLLWTQKRSIYARGEGGFGGKRGPSGSDVAPERAPDLQVAMPILPQQALLYRLCGDRNPLHSDPEFAAAAGFPRPILHGLCTYGMTCKAIVDALLDSDATAVAGYGARFAGVAYPGETLTVNVWKDGRRLVASVVAPTRDNAVVLSGVELVPA"}, "B2": {"name": "ChsB1 (Mycobacterium tuberculosis H37Rv) (protein)", "chain": "MKLTESNRSPRTTNTTDLSGKVAVVTGAAAGLGRAEALGLARLGATVVVNDVASALDASDVVDEIGAAAADAGAKAVAVAGDISQRATADELLASAVGLGGLDIVVNNAGITRDRMLFNMSDEEWDAVIAVHLRGHFLLTRNAAAYWRDKAKDAEGGSVFGRLVNTSSEAGLVGPVGQANYAAAKAGITALTLSAARALGRYGVCANVICPRARTAMTADVFGAAPDVEAGQIDPLSPQHVVSLVQFLASPAAAEVNGQVFIVYGPQVTLVSPPHMERRFSADGTSWDPTELTATLRDYFAGRDPEQSFSATDLMRQ"}}, "key": {"[1]": {"biological_target": "ChsB1 (Mycobacterium tuberculosis, UniProt O53547)"}, "[2]": {"substrate": "CC(=CCC[C@@H](C)[C@H]1CC[C@H]2[C@@H]3CCC4=CC(=O)CC[C@]4(C)[C@H]3CC[C@]12C)C(=O)SCCNC(=O)CCNC(=O)[C@H](O)C(C)(C)COP(=O)(O)OP(=O)(O)OC[C@H]1O[C@@H](n2cnc3c(N)ncnc32)[C@H](O)[C@@H]1OP(=O)(O)O", "assay": "purified protein", "details": "pH 7.4; 25.0 °C"}, "[3]": {"substrate": "CCCCC/C=C/C(=O)SCCNC(=O)CCNC(=O)[C@H](O)C(C)(C)COP(=O)(O)OP(=O)(O)OC[C@H]1O[C@@H](n2cnc3c(N)ncnc32)[C@H](O)[C@@H]1OP(=O)(O)O", "assay": "purified protein", "details": "pH 7.4; 25.0 °C"}, "[4]": {"substrate": "C[C@H](/C=C/C(=O)SCCNC(=O)CCNC(=O)[C@H](O)C(C)(C)COP(=O)(O)OP(=O)(O)OC[C@H]1O[C@@H](n2cnc3c(N)ncnc32)[C@H](O)[C@@H]1OP(=O)(O)O)[C@H]1CC[C@H]2[C@@H]3CCC4=CC(=O)CC[C@]4(C)[C@H]3CC[C@]12C", "assay": "purified protein", "details": "pH 7.4; 25.0 °C"}, "[5]": {"substrate": "NC(=O)c1ccc[n+]([C@@H]2O[C@H](COP(=O)(O)OP(=O)(O)OC[C@H]3O[C@@H](n4cnc5c(N)ncnc54)[C@H](O)[C@@H]3O)[C@@H](O)[C@H]2O)c1", "assay": "purified protein", "details": "pH 8.5; 25.0 °C; varied: cofactor"}, "[6]": {"substrate": "C[C@@H]([C@H]1CC[C@H]2[C@@H]3CCC4=CC(=O)CC[C@]4(C)[C@H]3CC[C@]12C)[C@@H](O)CC(=O)SCCNC(=O)CCNC(=O)[C@H](O)C(C)(C)COP(=O)(O)OP(=O)(O)OC[C@H]1O[C@@H](n2cnc3c(N)ncnc32)[C@H](O)[C@@H]1OP(=O)(O)O", "assay": "purified protein", "details": "pH 8.5; 25.0 °C"}, "[7]": {"substrate": "C[C@]12CC[C@H]3[C@@H](CCC4=CC(=O)CC[C@@]43C)[C@@H]1CC[C@@H]2O", "assay": "purified protein", "details": "pH 8.5; 25.0 °C"}, "[8]": {"substrate": "NC(=O)C1=CN([C@@H]2O[C@H](COP(=O)(O)OP(=O)(O)OC[C@H]3O[C@@H](n4cnc5c(N)ncnc54)[C@H](O)[C@@H]3O)[C@@H](O)[C@H]2O)C=CC1", "assay": "purified protein", "details": "pH 8.5; 25.0 °C; varied: cofactor"}, "[9]": {"substrate": "C[C@H](C(=O)CC(=O)SCCNC(=O)CCNC(=O)[C@H](O)C(C)(C)COP(=O)(O)OP(=O)(O)OC[C@H]1O[C@@H](n2cnc3c(N)ncnc32)[C@H](O)[C@@H]1OP(=O)(O)O)[C@H]1CC[C@H]2[C@@H]3CCC4=CC(=O)CC[C@]4(C)[C@H]3CC[C@]12C", "assay": "purified protein", "details": "pH 8.5; 25.0 °C"}, "[10]": {"substrate": "CCCCC[C@@H](O)CC(=O)SCCNC(=O)CCNC(=O)[C@H](O)C(C)(C)COP(=O)(O)OP(=O)(O)OC[C@H]1O[C@@H](n2cnc3c(N)ncnc32)[C@H](O)[C@@H]1OP(=O)(O)O", "assay": "purified protein", "details": "pH 8.5; 25.0 °C"}}}
{"molecule": "NC(=O)c1ccc[n+]([C@@H]2O[C@H](COP(=O)(O)OP(=O)(O)OC[C@H]3O[C@@H](n4cnc5c(N)ncnc54)[C@H](O)[C@@H]3O)[C@@H](O)[C@H]2O)c1", "note": "[NAD^+]", "values": [{"measurement": "X-ray co-crystal structure, 2.21 Å", "setting": "[1]", "result": "Co-crystallization of NAD^+ and ChsB1 yielded cubic crystals by sitting drop vapor diffusion"}]}
{"molecule": "B1", "values": [{"measurement": "Km", "setting": "[2]", "result": "12 ± 6", "unit": "µM"}, {"measurement": "kcat/Km", "setting": "[2]", "result": 120000, "unit": "M⁻¹ s⁻¹"}, {"measurement": "Km", "setting": "[3]", "result": "112 ± 12", "unit": "µM"}, {"measurement": "kcat/Km", "setting": "[3]", "result": "1.5e+06", "unit": "M⁻¹ s⁻¹"}, {"measurement": "Km", "setting": "[4]", "result": "55 ± 5", "unit": "µM"}, {"measurement": "kcat/Km", "setting": "[4]", "result": "2e+06", "unit": "M⁻¹ s⁻¹"}]}
{"molecule": "B2", "values": [{"measurement": "Km", "setting": "[5]", "result": "70 ± 10", "unit": "µM"}, {"measurement": "Km", "setting": "[6]", "result": "5.3 ± 1", "unit": "µM"}, {"measurement": "kcat/Km", "setting": "[6]", "result": "1.7e+06", "unit": "M⁻¹ s⁻¹"}, {"measurement": "Km", "setting": "[7]", "result": "369 ± 75", "unit": "µM"}, {"measurement": "kcat/Km", "setting": "[7]", "result": 810, "unit": "M⁻¹ s⁻¹"}, {"measurement": "Km", "setting": "[8]", "result": "40 ± 6", "unit": "µM"}, {"measurement": "Km", "setting": "[9]", "result": "25 ± 5", "unit": "µM"}, {"measurement": "kcat/Km", "setting": "[9]", "result": 64000, "unit": "M⁻¹ s⁻¹"}, {"measurement": "Km", "setting": "[10]", "result": "169 ± 21", "unit": "µM"}, {"measurement": "kcat/Km", "setting": "[10]", "result": 15000, "unit": "M⁻¹ s⁻¹"}]}
